Reference: PMC8298264, “Function of cofactor Akirin2 in the regulation of gene expression in model human neutrophil-like HL60 cells” (Bioscience Reports, 2021)

B1: sp¦Q9GZU8¦PIP30_HUMAN (protein, UniProt Q9GZU8 1-254, looked up)
PSME3-interacting protein: MDGGDDGNLIIKKRFVSEAELDERRKRRQEEWEKVRKPEDPEECPEEVYDPRSLYERLQEQKDRKQQEYEEQFKFKNMVRGLDEDETNFLDEVSRQQELIEKQRREEELKELKEYRNNLKKVGISQENKKEVEKKLTVKPIETKNKFSQAKLLAGAVKHKSSESGNSVKRLKPDPEPDDKNQEPSSCKSLGNTSLSGPSIHCPSAAVCIGILPGLGAYSGSSDSESSSDSEGTINATGKIVSSIFRTNTFLEAP
B2: sp¦P20340¦RAB6A_HUMAN (protein, UniProt P20340 2-208, looked up)
Ras-related protein Rab-6A: STGGDFGNPLRKFKLVFLGEQSVGKTSLITRFMYDSFDNTYQATIGIDFLSKTMYLEDRTVRLQLWDTAGQERFRSLIPSYIRDSTVAVVVYDITNVNSFQQTTKWIDDVRTERGSDVIIMLVGNKTDLADKRQVSIEEGERKAKELNVMFIETSAKAGYNVKQLFRRVAAALPGMESTQDRSREDMIDIKLEKPQEQPVSEGGCSC
B3: sp¦P12236¦ADT3_HUMAN (protein, UniProt P12236 1-298, looked up)
ADP/ATP translocase 3: MTEQAISFAKDFLAGGIAAAISKTAVAPIERVKLLLQVQHASKQIAADKQYKGIVDCIVRIPKEQGVLSFWRGNLANVIRYFPTQALNFAFKDKYKQIFLGGVDKHTQFWRYFAGNLASGGAAGATSLCFVYPLDFARTRLAADVGKSGTEREFRGLGDCLVKITKSDGIRGLYQGFSVSVQGIIIYRAAYFGVYDTAKGMLPDPKNTHIVVSWMIAQTVTAVAGVVSYPFDTVRRRMMMQSGRKGADIMYTGTVDCWRKIFRDEGGKAFFKGAWSNVLRGMGGAFVLVLYDELKKVI
B4: Alpha-2-macroglobulin (protein, UniProt P01023 24-1474, looked up)
Alpha-2-macroglobulin: SVSGKPQYMVLVPSLLHTETTEKGCVLLSYLNETVTVSASLESVRGNRSLFTDLEAENDVLHCVAFAVPKSSSNEEVMFLTVQVKGPTQEFKKRTTVMVKNEDSLVFVQTDKSIYKPGQTVKFRVVSMDENFHPLNELIPLVYIQDPKGNRIAQWQSFQLEGGLKQFSFPLSSEPFQGSYKVVVQKKSGGRTEHPFTVEEFVLPKFEVQVTVPKIITILEEEMNVSVCGLYTYGKPVPGHVTVSICRKYSDASDCHGEDSQAFCEKFSGQLNSHGCFYQQVKTKVFQLKRKEYEMKLHTEAQIQEEGTVVELTGRQSSEITRTITKLSFVKVDSHFRQGIPFFGQVRLVDGKGVPIPNKVIFIRGNEANYYSNATTDEHGLVQFSINTTNVMGTSLTVRVNYKDRSPCYGYQWVSEEHEEAHHTAYLVFSPSKSFVHLEPMSHELPCGHTQTVQAHYILNGGTLLGLKKLSFYYLIMAKGGIVRTGTHGLLVKQEDMKGHFSISIPVKSDIAPVARLLIYAVLPTGDVIGDSAKYDVENCLANKVDLSFSPSQSLPASHAHLRVTAAPQSVCALRAVDQSVLLMKPDAELSASSVYNLLPEKDLTGFPGPLNDQDNEDCINRHNVYINGITYTPVSSTNEKDMYSFLEDMGLKAFTNSKIRKPKMCPQLQQYEMHGPEGLRVGFYESDVMGRGHARLVHVEEPHTETVRKYFPETWIWDLVVVNSAGVAEVGVTVPDTITEWKAGAFCLSEDAGLGISSTASLRAFQPFFVELTMPYSVIRGEAFTLKATVLNYLPKCIRVSVQLEASPAFLAVPVEKEQAPHCICANGRQTVSWAVTPKSLGNVNFTVSAEALESQELCGTEVPSVPEHGRKDTVIKPLLVEPEGLEKETTFNSLLCPSGGEVSEELSLKLPPNVVEESARASVSVLGDILGSAMQNTQNLLQMPYGCGEQNMVLFAPNIYVLDYLNETQQLTPEIKSKAIGYLNTGYQRQLNYKHYDGSYSTFGERYGRNQGNTWLTAFVLKTFAQARAYIFIDEAHITQALIWLSQRQKDNGCFRSSGSLLNNAIKGGVEDEVTLSAYITIALLEIPLTVTHPVVRNALFCLESAWKTAQEGDHGSHVYTKALLAYAFALAGNQDKRKEVLKSLNEEAVKKDNSVHWERPQKPKAPVGHFYEPQAPSAEVEMTSYVLLAYLTAQPAPTSEDLTSATNIVKWITKQQNAQGGFSSTQDTVVALHALSKYGAATFTRTGKAAQVTIQSSGTFSSKFQVDNNNRLLLQQVSLPELPGEYSMKVTGEGCVYLQTSLKYNILPEKEEFPFALGVQTLPQTCDEPKAHTSFQISLSVSYTGSRSASNMAIVDVKMVSGFIPLKPTVKMLERSNHVSRTEVSSNHVLIYLDKVSNQTLSLFFTVLQDVPVRDLKPAIVKVYDYYETDEFAIAEYNAPCSKDLGNA
B5: sp¦Q9UHD1¦CHRD1_HUMAN (protein, UniProt Q9UHD1 2-332, looked up)
Cysteine and histidine-rich …: ALLCYNRGCGQRFDPETNSDDACTYHPGVPVFHDALKGWSCCKRRTTDFSDFLSIVGCTKGRHNSEKPPEPVKPEVKTTEKKELCELKPKFQEHIIQAPKPVEAIKRPSPDEPMTNLELKISASLKQALDKLKLSSGNEENKKEEDNDEIKIGTSCKNGGCSKTYQGLESLEEVCVYHSGVPIFHEGMKYWSCCRRKTSDFNTFLAQEGCTKGKHMWTKKDAGKKVVPCRHDWHQTGGEVTISVYAKNSLPELSRVEANSTLLNVHIVFEGEKEFDQNVKLWGVIDVKRSYVTMTATKIEITMRKAEPMQWASLELPAAKKQEKQKDATTD
B6: sp¦P04083¦ANXA1_HUMAN (protein, UniProt P04083 2-346, looked up)
Annexin A1: AMVSEFLKQAWFIENEEQEYVQTVKSSKGGPGSAVSPYPTFNPSSDVAALHKAIMVKGVDEATIIDILTKRNNAQRQQIKAAYLQETGKPLDETLKKALTGHLEEVVLALLKTPAQFDADELRAAMKGLGTDEDTLIEILASRTNKEIRDINRVYREELKRDLAKDITSDTSGDFRNALLSLAKGDRSEDFGVNEDLADSDARALYEAGERRKGTDVNVFNTILTTRSYPQLRRVFQKYTKYSKHDMNKVLDLELKGDIEKCLTAIVKCATSKPAFFAEKLHQAMKGVGTRHKALIRIMVSRSEIDMNDIKAFYQKMYGISLCQAILDETKGDYEKILVALCGGN
B7: sp¦P23921¦RIR1_HUMAN (protein, UniProt P23921 1-792, looked up)
Ribonucleoside-diphosphate …: MHVIKRDGRQERVMFDKITSRIQKLCYGLNMDFVDPAQITMKVIQGLYSGVTTVELDTLAAETAATLTTKHPDYAILAARIAVSNLHKETKKVFSDVMEDLYNYINPHNGKHSPMVAKSTLDIVLANKDRLNSAIIYDRDFSYNYFGFKTLERSYLLKINGKVAERPQHMLMRVSVGIHKEDIDAAIETYNLLSERWFTHASPTLFNAGTNRPQLSSCFLLSMKDDSIEGIYDTLKQCALISKSAGGIGVAVSCIRATGSYIAGTNGNSNGLVPMLRVYNNTARYVDQGGNKRPGAFAIYLEPWHLDIFEFLDLKKNTGKEEQRARDLFFALWIPDLFMKRVETNQDWSLMCPNECPGLDEVWGEEFEKLYASYEKQGRVRKVVKAQQLWYAIIESQTETGTPYMLYKDSCNRKSNQQNLGTIKCSNLCTEIVEYTSKDEVAVCNLASLALNMYVTSEHTYDFKKLAEVTKVVVRNLNKIIDINYYPVPEACLSNKRHRPIGIGVQGLADAFILMRYPFESAEAQLLNKQIFETIYYGALEASCDLAKEQGPYETYEGSPVSKGILQYDMWNVTPTDLWDWKVLKEKIAKYGIRNSLLIAPMPTASTAQILGNNESIEPYTSNIYTRRVLSGEFQIVNPHLLKDLTERGLWHEEMKNQIIACNGSIQSIPEIPDDLKQLYKTVWEISQKTVLKMAAERGAFIDQSQSLNIHIAEPNYGKLTSMHFYGWKQGLKTGMYYLRTRPAANPIQFTLNKEKLKDKEKVSKEEEEKERNTAAMVCSLENRDECLMCGS
B8: sp¦P52789¦HXK2_HUMAN (protein, UniProt P52789 1-917, looked up)
Hexokinase-2: MIASHLLAYFFTELNHDQVQKVDQYLYHMRLSDETLLEISKRFRKEMEKGLGATTHPTAAVKMLPTFVRSTPDGTEHGEFLALDLGGTNFRVLWVKVTDNGLQKVEMENQIYAIPEDIMRGSGTQLFDHIAECLANFMDKLQIKDKKLPLGFTFSFPCHQTKLDESFLVSWTKGFKSSGVEGRDVVALIRKAIQRRGDFDIDIVAVVNDTVGTMMTCGYDDHNCEIGLIVGTGSNACYMEEMRHIDMVEGDEGRMCINMEWGAFGDDGSLNDIRTEFDQEIDMGSLNPGKQLFEKMISGMYMGELVRLILVKMAKEELLFGGKLSPELLNTGRFETKDISDIEGEKDGIRKAREVLMRLGLDPTQEDCVATHRICQIVSTRSASLCAATLAAVLQRIKENKGEERLRSTIGVDGSVYKKHPHFAKRLHKTVRRLVPGCDVRFLRSEDGSGKGAAMVTAVAYRLADQHRARQKTLEHLQLSHDQLLEVKRRMKVEMERGLSKETHASAPVKMLPTYVCATPDGTEKGDFLALDLGGTNFRVLLVRVRNGKWGGVEMHNKIYAIPQEVMHGTGDELFDHIVQCIADFLEYMGMKGVSLPLGFTFSFPCQQNSLDESILLKWTKGFKASGCEGEDVVTLLKEAIHRREEFDLDVVAVVNDTVGTMMTCGFEDPHCEVGLIVGTGSNACYMEEMRNVELVEGEEGRMCVNMEWGAFGDNGCLDDFRTEFDVAVDELSLNPGKQRFEKMISGMYLGEIVRNILIDFTKRGLLFRGRISERLKTRGIFETKFLSQIESDCLALLQVRAILQHLGLESTCDDSIIVKEVCTVVARRAAQLCGAGMAAVVDRIRENRGLDALKVTVGVDGTLYKLHPHFAKVMHETVKDLAPKCDVSFLQSEDGSGKGAALITAVACRIREAGQR
B9: sp¦P09429¦HMGB1_HUMAN (protein, UniProt P09429 1-215, looked up)
High mobility group protein B1: MGKGDPKKPRGKMSSYAFFVQTCREEHKKKHPDASVNFSEFSKKCSERWKTMSAKEKGKFEDMAKADKARYEREMKTYIPPKGETKKKFKDPNAPKRPPSAFFLFCSEYRPKIKGEHPGLSIGDVAKKLGEMWNNTAADDKQPYEKKAAKLKEKYEKDIAAYRAKGKPDAAKKGVVKAEKSKKKKEEEEDEEDEEDEEEEEDEEDEDEEEDDDDE

Tested on: human HL60 cells
Experiment: SWATH-MS proteomics, differential protein representation, akirin2 KO vs WT HL60 cells
Format: cell-based
How it was run: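 First, proteins from wild-type and knockout cells are digested with trypsin by FASP. Next, pooled IDA runs generate a reference ion library. Then six samples of 5 µg each are acquired by data-independent SWATH, and protein areas are normalized to the summed area of all detected proteins.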

[1] = SWATH-MS, akirin2 KO vs WT HL60 cells, over-represented in KO
[2] = KO vs WT HL60 cells, sheet "Under-represented in KO"

| Molecule | Fold Change [1] | Log (Fold Change) [1] | Fold Change [2] | Log (Fold Change) [2] |
| --- | --- | --- | --- | --- |
| B1 | 1.523 | 0.1827 |  |  |
| B2 |  |  | 0.5176 | -0.286 |
| B3 | 1.53 | 0.1848 |  |  |
| B4 | 4.777 | 0.6792 |  |  |
| B5 | 1.486 | 0.1721 |  |  |
| B6 | 1.503 | 0.1771 |  |  |
| B7 | 1.511 | 0.1792 |  |  |
| B8 | 1.502 | 0.1767 |  |  |
| B9 | 1.517 | 0.1809 |  |  |
